Molecular target: 人IgM (human, UniProt P01871 1-453)
Assay: AMC sensor kinetics, antibody captured on the sensor, human IgM in graded dilutions in solution

人IgM, sequence (P01871 other isoform, or with tags, fused parts or gaps): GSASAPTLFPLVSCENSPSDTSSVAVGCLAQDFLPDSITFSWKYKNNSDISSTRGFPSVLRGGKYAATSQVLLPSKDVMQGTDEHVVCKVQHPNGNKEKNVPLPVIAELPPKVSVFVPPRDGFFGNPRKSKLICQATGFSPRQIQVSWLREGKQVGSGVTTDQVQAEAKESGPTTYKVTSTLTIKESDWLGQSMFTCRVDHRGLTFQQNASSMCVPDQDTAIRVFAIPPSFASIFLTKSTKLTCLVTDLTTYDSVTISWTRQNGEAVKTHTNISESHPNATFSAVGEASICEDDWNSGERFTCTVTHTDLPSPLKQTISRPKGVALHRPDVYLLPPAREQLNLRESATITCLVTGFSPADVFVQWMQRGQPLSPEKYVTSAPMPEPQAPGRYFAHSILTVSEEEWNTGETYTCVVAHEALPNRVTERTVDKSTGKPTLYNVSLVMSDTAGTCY

Kd [pM]	koff [s⁻¹]	kon [M⁻¹ s⁻¹]	Binder
3.02	2.84e-05	9.41e+06	Ig-M-9G1RMb1抗体 (antibody, mouse IgG1, kappa, V domains shown, It was detected with goat anti-mouse IgG-HRP and captured on AMC sensors; also called 抗人IgM抗体) VH: EVQLQQSGAELVKPGASVKLSCTTSGFSIKDAYIHWVKQRPKQGLEWIGRIDPANGYTKYDPKFQGKATITADKSSSTAYMQLRSLTSEDSAVYYCAREPLPHYYAMDYWGQGTSVTVSS VL: DIQMTQSPSSLSASLGERVSLTCRASQEISGFLSWLQQKPDGTIKRLIYAASTLDSGVPKRFSGSTSGSDYRLKISSLESEDFADYYCIQYTSFPLTFGAGTKLELKR
4.27	6.07e-05	1.42e+07	Ig-M-9G1RMb2抗体 (antibody, V domains shown) VH: EVQLQQSGAELVKPGASVKLSCTTSGFSIKDAYIHWVKQRPKQGLEWIGRIDPANGYTKYDPKFQGKATITADKSSSTAYMQLRSLTSEDSAVYYCAREPLPHYYAMDYWGQGTSVTVSS VL: DIQMTQSPSSLSASLGERVSLTCRASQEISGFLSWLQQKPDGTIKRLIYAASTLDSGVPKRFSGSTSGSDYRLKISSLESEDFADYYCLQYTSFPLTFGAGTKLELKR
